Results: US20160200831A1 (Sanofi, published 2016)
Residue numbers refer to the chain shown, from its start. Like-named read-outs stand apart in the source and are kept apart here. Values belong to the binder of their own block, whether it stands above or below them.

Columns and labels:
[1] = biological target: T1, glycosylated human PAI-1 (active form) (human, UniProt P05121 24-402, glycosylated); test: cell-based or functional assay
[2] = biological target: T2, cyno PAI-1 captured on immobilized human vitronectin (cynomolgus monkey; human, UniProt P04004 20-478, limits assumed); test: Biacore, cPAI-1 on vitronectin chip, two state reaction model
T2 construct: non-covalent complex formed on the chip; also called cPAI-1/Vn
T2 sequence (chain, as listed by the source limits assumed, chain 1 of 2): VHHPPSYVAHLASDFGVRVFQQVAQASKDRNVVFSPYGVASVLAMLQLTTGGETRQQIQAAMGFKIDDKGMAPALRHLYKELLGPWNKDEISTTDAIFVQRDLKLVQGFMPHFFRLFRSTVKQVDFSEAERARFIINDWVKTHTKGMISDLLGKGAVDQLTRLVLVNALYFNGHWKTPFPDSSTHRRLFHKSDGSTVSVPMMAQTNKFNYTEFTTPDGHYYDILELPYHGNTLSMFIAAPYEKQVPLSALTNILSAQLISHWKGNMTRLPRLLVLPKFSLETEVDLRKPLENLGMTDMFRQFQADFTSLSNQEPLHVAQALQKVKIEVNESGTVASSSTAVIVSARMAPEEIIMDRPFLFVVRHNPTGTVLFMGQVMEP
T2 sequence (P04004 20-478 limits assumed, chain 2 of 2): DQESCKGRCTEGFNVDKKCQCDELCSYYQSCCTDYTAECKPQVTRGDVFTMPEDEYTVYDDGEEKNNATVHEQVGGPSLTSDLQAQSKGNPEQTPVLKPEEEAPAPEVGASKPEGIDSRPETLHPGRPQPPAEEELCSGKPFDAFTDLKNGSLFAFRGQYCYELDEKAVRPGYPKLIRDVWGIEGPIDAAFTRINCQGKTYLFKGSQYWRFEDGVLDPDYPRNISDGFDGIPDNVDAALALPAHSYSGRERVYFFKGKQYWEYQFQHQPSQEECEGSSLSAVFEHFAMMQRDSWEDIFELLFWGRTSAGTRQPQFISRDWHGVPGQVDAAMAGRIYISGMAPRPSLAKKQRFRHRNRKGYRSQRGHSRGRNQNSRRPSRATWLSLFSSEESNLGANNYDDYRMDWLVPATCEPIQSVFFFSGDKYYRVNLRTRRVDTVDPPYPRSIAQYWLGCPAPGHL

[3] = biological target: T3, human PAI-1 (human, UniProt P05121 24-402); test: Biacore, mAb on anti-human IgG Fc chip, 1:1 model
T3 construct: also used for endogenous PAI-1 of human plasma, liver lysate and lung fibroblasts; also called hPAI-1; hPAI
T3 sequence (P05121 24-402 limits assumed): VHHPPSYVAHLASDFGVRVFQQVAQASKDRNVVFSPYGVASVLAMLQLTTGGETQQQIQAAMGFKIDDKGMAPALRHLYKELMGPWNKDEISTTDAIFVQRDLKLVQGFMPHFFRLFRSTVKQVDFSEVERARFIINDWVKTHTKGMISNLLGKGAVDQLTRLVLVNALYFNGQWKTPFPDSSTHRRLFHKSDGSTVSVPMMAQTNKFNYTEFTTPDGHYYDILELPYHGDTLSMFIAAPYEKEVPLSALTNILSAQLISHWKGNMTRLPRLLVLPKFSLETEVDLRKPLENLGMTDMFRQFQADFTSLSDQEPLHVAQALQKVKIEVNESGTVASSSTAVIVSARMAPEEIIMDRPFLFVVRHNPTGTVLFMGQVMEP

[4] = biological target: T1, glycosylated human PAI-1 (active form); test: cell-based or functional assay; remark: listed apart in the source
[5] = biological target: T1, glycosylated human PAI-1 (active form); test: cell-based or functional assay; remark: listed apart in the source
[6] = biological target: T4, human PAI-1 captured on immobilized human vitronectin (human, UniProt P04004 20-478); test: Biacore, hPAI-1 on vitronectin chip, 1:1 model
T4 construct: non-covalent complex formed on the chip or plate; also called PAI-1/Vn complex; Vn captured hPAI-1
T4 sequence (chain, as listed by the source limits assumed, chain 1 of 2): as the sequence (P05121 24-402 limits assumed) above
T4 sequence (P04004 20-478 limits assumed, chain 2 of 2): as the sequence (P04004 20-478 limits assumed, chain 2 of 2) above

[7] = biological target: T3, human PAI-1; test: cell-based or functional assay
[8] = biological target: T5, cynomolgus PAI-1 (cynomolgus monkey (Macaca fascicularis), UniProt P05121 24-402 (human entry)); test: Biacore, mAb on anti-human IgG Fc chip / cyno PAI-1, 1:1 model
T5 construct: produced in-house in E. coli (non-glycosylated); active cyno PAI-1 in the assays; also called cyno PAI-1; cPAI-1

[9] = biological target: T2, cyno PAI-1 captured on immobilized …; test: Biacore, cPAI-1 on vitronectin chip, two state reaction model (ka1)
[10] = biological target: T3, human PAI-1; test: cell-based or functional assay; remark: listed apart in the source
[11] = biological target: T5, cynomolgus PAI-1; test: cell-based or functional assay
[12] = biological target: T2, cyno PAI-1 captured on immobilized …; test: Biacore, cPAI-1 on vitronectin chip, two state reaction model (kd1)
[13] = biological target: T1, glycosylated human PAI-1 (active form); test: cell-based or functional assay; remark: listed apart in the source
[14] = biological target: T1, glycosylated human PAI-1 (active form); test: Biacore (summary table)
Protocol: (§1) In kinetics measurement, the antibodies were evaluated in reverse at 25° C. In the reverse assay, PAI-1 antibodies were captured to the anti-mouse IgG Fc antibody surface prepared on CM5 chip followed by injecting the serial 2× dilutions of PAI-1 proteins (human or cyno) starting at 40 nM. A high flow rate was chosen at 50 ul/min to avoid mass transportation limitation. Two thousand seconds was allowed for dissociation time to accommodate for the slow off rate of the selected antibodies. The chip was regenerated by glycine-HCl, pH 1.7 buffer after each round of antibody-PAI-1 binding. Kinetics data analysis was performed using Biacore BIAevaluation software. The sensorgrams were double-referenced by subtracting the reference flow cell values and the blank buffer values. The sensorgrams were fitted by using the simulated kinetics 1:1 (Langmuir) model with local Rmax.

[15] = biological target: T3, human PAI-1; test: Biacore, hybridoma supernatant
[16] = biological target: T3, human PAI-1; test: Biacore reverse assay, mAb captured by anti-mouse IgG Fc, 25 C
Protocol: as §1

[17] = biological target: T5, cynomolgus PAI-1; test: as above
Protocol: as §1

[18] = biological target: T1, glycosylated human PAI-1 (active form); test: cell-based or functional assay; remark: listed apart in the source
[19] = biological target: T3, human PAI-1; test: cell-based or functional assay; remark: listed apart in the source
[20] = biological target: T4, human PAI-1 captured on immobilized …; test: Biacore forward assay, hPAI-1 captured on immobilized vitronectin
Protocol: Binding kinetics of representative antibodies were further analyzed and compared in Biacore forward assay with vitronectin and PAI-1 complex. In the forward assay, human vitronectin protein was immobilized onto the CM5 chip in flow cells Fc1-Fc4 by amine coupling. Human PAI-1 was then captured to the vitronectin surface in flow cells Fc2-Fe4 as ligand. Fc1 was reserved as reference cell. The antibodies were diluted 2× starting from 40 nM and injected to Fc1-4. Kinetics data analysis was performed using Biacore BIAevaluation software. The sensorgrams were first double-referenced by subtracting the reference cell values and the blank buffer values, and then fitted by 1:1 (Langmuir) model was used with global Rmax.

[21] = biological target: T3, human PAI-1; test: cell-based or functional assay; remark: listed apart in the source
[22] = biological target: T1, glycosylated human PAI-1 (active form); test: cell-based or functional assay; remark: listed apart in the source
[23] = biological target: T5, cynomolgus PAI-1; test: cell-based or functional assay; remark: listed apart in the source
[24] = biological target: T2, cyno PAI-1 captured on immobilized …; test: Biacore, cPAI-1 on vitronectin chip, 1:1 model
[25] = biological target: T4, human PAI-1 captured on immobilized …; test: Biacore, hPAI-1 on vitronectin chip, two state reaction model (ka1); two state reaction model, ka1 is the first-step rate
[26] = biological target: T4, human PAI-1 captured on immobilized …; test: Biacore, hPAI-1 on vitronectin chip, two state reaction model
[27] = biological target: T4, human PAI-1 captured on immobilized …; test: Biacore, hPAI-1 on vitronectin chip, two state reaction model (kd1)
[28] = biological target: T3, human PAI-1; test: Biacore reverse assay, mAb captured by anti-mouse IgG Fc, 25 C; reverse assay: B28 captured by anti-mouse IgG Fc, PAI-1 injected, 25 C
Protocol: as §1

[29] = biological target: T3, human PAI-1; test: cell-based or functional assay; remark: listed apart in the source
[30] = biological target: T3, human PAI-1; test: Biacore, hybridoma supernatant; hybridoma supernatant, off-rate screen (class, not a fitted rate)
Protocol: In the Biacore reverse screening assay, ELISA positive hybridoma supernatants were selected and filtered through 0.2 μm filters before being injected onto Biacore chip surface. Each hybridoma supernatant was injected onto one flow cell of flow cells Fc2-Fc4 and the IgG in the hybridoma supernatant would be captured to the chip surface by anti-mouse IgG Fc mAb, while Fc1 was left alone as reference cells. Human PAI-1 protein in PBS was then injected to Fc1 to Fc4. PBS buffer was also injected over the chip surface as a blank. After subtracting signals of Fc1 and blank buffer runs, the binding affinity (KD)/disassociation rate (kd) of the antibody from the supernatants to PAI-1 protein was analyzed and ranked using Scrubber 2 software.

T1 sequence (P05121 24-402 limits assumed): as the sequence (P05121 24-402 limits assumed) above

- Plasminogen Activation IC50 [1]: 2010 pM
- Plasminogen Activation Y50% [1]: 85.8%
- Kd [2]: 387 pM
- Kd [3]: 42.5 pM
- koff [3]: 6.68e-05 s⁻¹
- kon [3]: 1.57e+06 M⁻¹ s⁻¹
- human plasma clot lysis restoration, IC50 [4]: 2000 pM
- human plasma clot lysis, IC50 [5]: 1380 pM
- human plasma clot lysis, Imax @ 100 nM [5]: 113%
- Kd [6]: 15.6 pM
- koff [6]: 0.000122 s⁻¹
- kon [6]: 7.66e+06 M⁻¹ s⁻¹
- PAI-1 activity in human liver lysate (UK-PAI complex ELISA), IC50, A44-hv11 (1 nM) [7]: 36.5 pM
- PAI-1 activity in human liver lysate (UK-PAI complex ELISA), IC50, A44-hv11 (2 nM) [7]: 50.3 pM
- PAI-1 activity in human liver lysate (UK-PAI complex ELISA), IC50, A44-hv11 (3 nM) [7]: 46.5 pM
- Kd [8]: 30 pM
- koff [8]: 5.6e-05 s⁻¹
- kon [8]: 1.87e+06 M⁻¹ s⁻¹
- kon [9]: 1.56e+06 M⁻¹ s⁻¹
- active PAI-1 by uPA-PAI-1 complex ELISA, hPAI-1 Standard, IC50 [10]: 131 pM
- active PAI-1 by uPA-PAI-1 complex ELISA, hPAI-1 Standard, Y50% [10]: 50.8%
- active PAI-1 by uPA-PAI-1 complex ELISA, hPlasma TH1782, IC50 [10]: 15.7 pM
- active PAI-1 by uPA-PAI-1 complex ELISA, hPlasma TH1782, Y50% [10]: 37.5%
- active PAI-1 by uPA-PAI-1 complex ELISA, Cyno PAI-1, IC50 [11]: 42.4 pM
- active PAI-1 by uPA-PAI-1 complex ELISA, Cyno PAI-1, Y50% [11]: 50.8%
- koff [12]: 0.0006 s⁻¹
B1: A44-hv11 (antibody, V domains shown)
VH: QMTLKESGPTLVKPTQTLSLTCSVSGDSMTNGYWNWIRQFPGKALEYMGYITYSGSTYYNPSLKGRITITRDTSKNQYYLTLSSVTTVDTATYYCARWHYGSPYYFDYWGQGTTLTVSS
VL: DIKMTQSPSSLSASVGDRVTITCKASQDINSYLSWLQQKPGKSPKTLIYRAQRSVEGVPSRFSGSGSGQDYSLTISSLQPEDLGIYYCLQYDEFPPTFGGGTKLEIK
notes: humanized A44, HEK293; compared with a human IgG1 isotype control; constant regions as for A44-hv1; also called A44V11; A44v11

- plasmin generation, hepatic stellate cells, IC50abs [13]: 3320 pM
- plasmin generation, hepatic stellate cells, Imax [13]: 97%
- Kd [14]: 0.042 pM
- Plasminogen Activation IC50 [1]: 3130 pM
- Plasminogen Activation Y50% [1]: 79.8%
- koff [15]: ≤ 0.0001 s⁻¹
- Kd [6]: 40.4 pM
- koff [6]: 0.000229 s⁻¹
- kon [6]: 5.68e+06 M⁻¹ s⁻¹
- Kd [16]: 3.76 pM
- koff [16]: 1.49e-05 s⁻¹
- Kd [17]: ≤ 0.1 pM
- koff [17]: ≤ 1e-06 s⁻¹
- Plasmin Generation [18]: 3.32 nM
- EC50, fall of % tPA inhibition by PAI-1 (chromogenic neutralisation assay) [19]: 4030 pM
- Kd [20]: ≤ 1 pM
- koff [20]: ≤ 1e-06 s⁻¹
- Chromogenic Assay IC50 [21]: 440 pM
- Plasminogen Activation IC50 [22]: 3170 pM
- Plasminogen Activation Y50% [22]: 46%
- EC50, % PAI-1 neutralization, 2.8 nM cyno PAI-1 (chromogenic assay with human tPA); plateau about 100 % [23]: 226 pM
- Kd [24]: 69.6 pM
- koff [24]: 0.000275 s⁻¹
- kon [24]: 3.98e+06 M⁻¹ s⁻¹
B2: A44 (antibody, mouse IgG1, V domains shown)
VH: EMQLQESGPSLVKPSQTLSLTCSVTGDSMTNGYWNWIRKFPGNKLEYMGYITYSGSTYYNPSLKGRISITRNTSKNQYYLQLSSVTTEDTATYYCARWHYGSPYYFDYWGQGTTLTVSS
VL: DIKMTQSPSSMYASLGERVTITCKASQDINSYLSWLQQKPGKSPKTLIYRANRSVDGVPSRFSGSGSGQDYSLTISSLEYEDMGIYYCLQYDEFPPTFGGGTKLEIKR
notes: mouse IgG1/kappa; also called mA44; A44 parental

B3: A44-hv2 (antibody, V domains shown)
VH: B2 VH with S10G, Q16E, N43K, K44G, Q81K, E88A
VL: DIKMTQSPSSVSVSPGQTVTITCKASQDINSYLSWLQQKPGQSPKTLIYRANRSVDGVPSRFSGSGSGQDYSLTISSLQAMDEGIYYCLQYDEFPPTFGGGTKLTIK
notes: humanized A44, HEK293; constant regions as for A44-hv1; also called LC1b x HC1b; variant 2
- kon [25]: 2.99e+06 M⁻¹ s⁻¹
- Kd [2]: 137 pM
- Kd [26]: 135 pM
- kon [9]: 2.3e+06 M⁻¹ s⁻¹
- koff [27]: 0.000403 s⁻¹
- koff [12]: 0.000314 s⁻¹
- Chromogenic Assay IC50 [21]: 600 pM

- plasmin generation, hepatic stellate cells, IC50abs [13]: 7280 pM
- plasmin generation, hepatic stellate cells, Imax [13]: 90%
- Kd [14]: 650 pM
- Kd [28]: 650 pM
- koff [28]: 0.000461 s⁻¹
- Chromogenic Assays [18]: 1.8 nM
- Plasmin Generation [18]: 7.28 nM
- EC50, % neutralization of hPAI-1 (chromogenic assay) [29]: 2300 pM
- koff [30]: ≤ 0.0001 s⁻¹
B4: B28 (antibody, mouse IgG2b, V domains shown)
VH: QVQLQQSGAELMKPGASVKISCKATGYTFSISWIEWIKQRPGGLEWIGKILPGSGGANYNEKFKGKATVTADTSSNTVYMQLSSLTSEDSAVYYCARLSTGTRGAFDYWGQGTTLTVSS
VL: DIQLTQSPASLSASVGATVTITCRASENVYSYLAWYQQKQGKSPQLLVYNAKTLAEGVPSRFSGSGSGTQFSLKINYLQPEDFGSYYCQHHYGTPPTFGGGTKVEIKR
notes: mouse IgG2b/kappa; also called mB28; B28 (IgG2b/k)
